Laboratory results from patent US12605469B2, “Tumor specific antibody conjugates and uses therefor” (The University of North Carolina at Charlotte, priority 2019, dated 2026).
Where a chain is given by its changes, count along the chain named.

B1: Chimeric parental antibody (H4965 + L4965) (antibody, IgG1, V domains shown)
VH: EVQLQQSGGERATPGASVKMSCKTSGYTFTNYWMHWVKQRPGQGLEWIGYINPSSGYTQYNQKFKDKATLTADKSSSTAYIQLSSLTSEDSAVYYCSTYYGDYLFPYWGQGTLVTVSA
VL: DVLMTQTPLSLPVSLGDQASISCRSSQDIVYGNGNTYLEWYLQKPGQSPKLLIYKVSNRFSGVPDRFSGSGSGTDFTLKISRVEAEDLGVYYCFQGSHVPYTFGGGTKLEIKR
notes: also called pp 9854; Chimeric Parental HC
B2: Humanized HC2 + LC2 (antibody, human IgG2, kappa, V domains shown)
VH: QVQLVQSGAEVKKPGASVKVSCKASGYTFTNYWMHWVRQAPGQGLEWMGYINPSSGYTQYNQKFQGRVTMTADTSTSTVYMELSSLRSEDTAVYYCSTYYGDYLFPYWGQGTLVTVSS
VL: B1 VL with L3V, T7S, S14T, D17Q, Q18P, L42Q, K44R, K50R, L88V, G105Q
notes: Listing: IgG2 heavy chain; also called H6246 + L6246
B3: Humanized HC3 + LC2 (antibody, human IgG2, kappa, V domains shown)
VH: B2 VH with Q1E, R67W, T76I, V79A, S85R, E89D
VL: B1 VL with L3V, T7S, S14T, D17Q, Q18P, L42Q, K44R, K50R, L88V, G105Q
notes: Listing: IgG2 heavy chain; also called H6247 + L6246
B4: Humanized HC1 + LC3 (antibody, human IgG2, kappa, V domains shown)
VH: B2 VH with A72R
VL: DIVLTQSPLSLPVTLGQPASISCRSSQDIVYGNGNTYLEWYQQRPGQSPRLLIYKVSNRFSGVPDSFSGSGSGTDFTLTISRVEAEDVGIYYCFQGSHVPYTFGEGTKLEIKR
notes: Listing: IgG2 heavy chain; also called H6245 + L6247
B5: Humanized HC2 + LC3 (antibody, human IgG2, kappa, V domains shown)
VH: B2 VH
VL: B4 VL
notes: Listing: IgG2 heavy chain; also called H6246 + L6247
B6: Humanized HC1 + LC2 (antibody, human IgG2, kappa, V domains shown)
VH: B2 VH with A72R
VL: B4 VL with I2V, L4M, S66R, T79K, I90V, E105Q
notes: Listing: IgG2 heavy chain; also called H6245 + L6246
B7: Humanized HC3 + LC3 (antibody, human IgG2, kappa, V domains shown)
VH: B2 VH with Q1E, R67W, T76I, V79A, S85R, E89D
VL: B4 VL
notes: Listing: IgG2 heavy chain; also called H6247 + L6247
B8: TAB-004 antibody-conjugated mesoporous silica nanoparticle (antibody, V domains shown)
VH: B1 VH
VL: B1 VL
modifications: antibody coupled by EDC to the carboxylic acid groups of a PEG-2K linker on an FITC-labelled mesoporous silica nanoparticle; site not stated
notes: Many copies of TAB-004 on one particle; also called TAB-004-MSN
B9: Humanized HC1 + LC1 (antibody, human IgG2, kappa, V domains shown)
VH: B2 VH with A72R
VL: B4 VL with I2V, L4M, Y41F, S66R, T79K, I90V, E105Q
notes: also called H6245 + L6245
B10: Humanized HC3 + LC1 (antibody, human IgG2, kappa, V domains shown)
VH: B2 VH with Q1E, R67W, T76I, V79A, S85R, E89D
VL: B4 VL with I2V, L4M, Y41F, S66R, T79K, I90V, E105Q
notes: Listing: IgG2 heavy chain; also called H6247 + L6245
B11: Humanized HC2 + LC1 (antibody, human IgG2, kappa, V domains shown)
VH: B2 VH
VL: B4 VL with I2V, L4M, Y41F, S66R, T79K, I90V, E105Q
notes: Listing: IgG2 heavy chain; also called H6246 + L6245

Target: T1, human MUC1 antigen in plate ELISA (KCM lysate) (human, UniProt P15941 24-1255, limits assumed, tumor-associated glycosylation, not specified further)
Test: sandwich ELISA: hybridoma antibody coat, KCM lysate 10 µg/mL, test antibody in 5-fold dilutions, HRP goat anti-human IgG, OD450

T1 sequence (P15941 other isoform, or with tags, fused parts or gaps limits assumed): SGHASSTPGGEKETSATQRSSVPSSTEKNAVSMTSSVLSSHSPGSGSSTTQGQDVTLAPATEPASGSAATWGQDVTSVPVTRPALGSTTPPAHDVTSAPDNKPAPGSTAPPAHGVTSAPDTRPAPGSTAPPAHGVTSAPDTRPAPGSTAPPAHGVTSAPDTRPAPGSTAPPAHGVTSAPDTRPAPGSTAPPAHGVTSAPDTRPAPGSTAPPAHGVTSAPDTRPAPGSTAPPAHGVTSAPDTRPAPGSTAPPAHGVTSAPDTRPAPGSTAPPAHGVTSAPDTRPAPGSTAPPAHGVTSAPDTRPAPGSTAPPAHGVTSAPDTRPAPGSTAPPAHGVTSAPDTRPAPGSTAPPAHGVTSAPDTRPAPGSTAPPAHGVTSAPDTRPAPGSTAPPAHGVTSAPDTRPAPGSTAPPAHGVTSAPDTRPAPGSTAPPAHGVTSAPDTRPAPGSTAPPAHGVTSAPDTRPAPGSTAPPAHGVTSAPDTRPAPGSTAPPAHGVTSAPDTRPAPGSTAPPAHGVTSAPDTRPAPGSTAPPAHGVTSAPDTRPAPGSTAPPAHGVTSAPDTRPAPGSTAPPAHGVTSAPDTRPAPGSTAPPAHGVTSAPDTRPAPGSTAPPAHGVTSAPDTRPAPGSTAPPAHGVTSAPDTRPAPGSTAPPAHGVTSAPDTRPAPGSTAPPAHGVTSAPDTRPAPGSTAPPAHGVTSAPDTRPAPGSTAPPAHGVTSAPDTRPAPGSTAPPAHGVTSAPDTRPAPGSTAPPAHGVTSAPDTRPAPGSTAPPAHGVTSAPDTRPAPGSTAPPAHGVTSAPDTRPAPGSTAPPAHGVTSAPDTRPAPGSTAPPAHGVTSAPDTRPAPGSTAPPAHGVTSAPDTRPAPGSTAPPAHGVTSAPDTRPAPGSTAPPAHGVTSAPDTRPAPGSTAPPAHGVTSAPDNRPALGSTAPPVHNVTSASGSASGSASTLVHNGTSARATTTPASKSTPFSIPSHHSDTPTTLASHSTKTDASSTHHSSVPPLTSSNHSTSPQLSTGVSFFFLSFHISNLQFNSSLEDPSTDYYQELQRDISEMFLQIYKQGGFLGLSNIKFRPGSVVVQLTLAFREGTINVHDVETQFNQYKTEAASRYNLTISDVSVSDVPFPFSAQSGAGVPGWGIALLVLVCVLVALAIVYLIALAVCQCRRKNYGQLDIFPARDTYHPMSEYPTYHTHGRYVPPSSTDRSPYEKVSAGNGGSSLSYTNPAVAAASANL

Row | Binder | EC50 [µg/mL]
1 | B1 | 0.006
2 | B2 | 0.032
3 | B3 | 0.007
4 | B4 | 0.051
5 | B5 | 0.027
6 | B6 | 0.055
7 | B7 | 0.004

Target: T2, human MUC1, tumor-associated form (tMUC), on tumor cells and tumor tissue (human, UniProt P15941 24-1255, tumor-associated (aberrant) glycosylation, not specified further)
T2 construct: also called tMUC1; tumor-associated glycosylated MUC1
Test: flow cytometry of particle uptake, 12 hours at 37 °C; KCM cells (human MUC1) against KCKO cells (MUC1 knockout)

T2 sequence (P15941 other isoform, or with tags, fused parts or gaps limits assumed): as above

Row | Binder | fold increase in uptake by KCM cells as compared to KCKO cells [fold]
8 | B8 | 8

Target: T1, human MUC1 antigen in plate ELISA (KCM …)
Test: sandwich ELISA: hybridoma antibody coat, KCM lysate 10 µg/mL, test antibody in 5-fold dilutions, HRP goat anti-human IgG

Row | Binder | binding result
9 | B9 | no binding
10 | B10 | no binding
11 | B11 | no binding
